# Assay results reported in the DeepSol protein solubility set.
# Assay: soluble on expression in E. coli; label from the status in PepcDB or PDB records
row,Sequence,soluble on expression in E. coli
1,MGGPEKNSTVPLPNKKRKKKTNKKKPTAPNTPTSPQAGEKNANLKNGTVTTNGSNHVERLAGRAVHSLSAIDYSGITNDVEAGGSFSLTDVFPTVIFMFVVLFCRWLNGFSQHRERLYKFEDEAVQRRRRFRVHSEESEELNDHESYSETDICTQLLASSADVTCHINVDLVNQNRFYFFVKQRNKKENSTNEEEEISSQEINTSTQNEETEVNLVFASAEDNGGVASNFDISDALMVTSNISEVSKLPETLCEEGETVQQKSVVNENDHSNEDDEQSLQSQDGSRCSDEDMNSCVSASDEEDVESQDDSFHVNDATEESIDSVSSIESQEAEESATEDLASCHSNDDKNEKDVLVDEDTSKYDNLPVEMRSAKEGEESEGTIDSSVSSSTSSSSTGDDGDDSATSYDSEDIEIQMFEYDLGTACASASISIPRPSIIPRNNKKTEVNANEERLDDLSVSPGRSDSPGGGGGGHSDSFQDPMDPGEQLGSDDEEQEDPRDYKRGGYHPVNIGDVFNARYHVIRKLGWGHFSTVWLAWDTQDKRFVAMKIVKSAEHYTEAALDEIKLLLSVRSADPNDIGCHKVVQLLDEFTVTGINGQHVAMVFEVLGCNLLKLIIRSNYRGLHLEQVRKICRQVLEALGYMHEKCGIIHTDIKPENVLITMSREEIKIMAQHAVVARKMNMKMSGSAVSTAPDHLVKMAQENMTKNKKKKMKKKAKKQREKLEAELAGLEGLKMDANGLQEAYNNAPELENFNASQVEDVTMEDTVNENGNRNKVEIRSPDRFDRTTLTPFSDPESKFGDLASPSAEYLSSPMSQLPPGGILPAPPVGPNIGDPYCDIDVKIADLGNACWVNHHYTDDIQTRQYRALEVLIGSGYGPPADIWSTACMAFELATGDYLFEPHQGDNYSRDEDHLAHISELLGAIPPSIYKKGKHWREFFHKNGHLLHIHQLKPWSLYEVLRQKYEWSHEDAQQFESFLRPMLDFDQEKRSTAKIALKHPFLLPFGGRAPKSDCPPELLSKMFPDGLIPEPFDGNEHQEVYRDENDSRSASERSANSRSAGGSDDDDEEEFNMNRPGPSGHFPIFCSRVFTFMF,soluble
2,MGGRSNSATTAAQQNAVLRIVVVGGGGVGKSALTIQFIQRYFVQDYDPTIEDSYTKQCFVDEDLCKLEILDTAGQEEFSTMREQYLRTGSGFLIVFAVTDRNSFEEVKKLHELICRIKDRDDFPIILVGNKADLENERHVARHEAEELAHRLSIPYLECSAKIRKNVDEAFFDIVRLVRKYQHDERMPIHPHDDRKLESPIKLKKKKNCRIQ,soluble
3,MGGSHHHHHHGMASALRGLEEPGPRPTATPCGCVKPALETGNLLTEPVGYLESCFSAKNGTPRQPSICSYSRACLRIRKRIFNNPEHSLMGLEQFSHVWILFVFHKNGHLSCKAKVQPPRLNGAKTGVFSTRSPHRPNAIGLTLAKLEKVEGGAIYLSGIDMIHGTPVLDIKPYIAEYDSPQNVMEPLADFNLQNNQHTPNTVSQSDSKTDSCDQRQLSGCDEPQPHHSTKRKPKCPEDRTSEENYLTHSDTARIQQAFPMHREIAVDFGLESRRDQSSSVAEEQIGPYCPEKSFSEKGTDKKLERVEGAAVLQGSRAETQPMAPHCPAGRADGAPRSVVPAWVTEAPVATLEVRFTPHAEMDLGQLSSQDVGQASFKYFQSAEEAKRAIEAVLSADPRSVYRRKLCQDRLFYFTVDIAHVTCWFGDGFAEVLRIKPASEPVHMTGPVGSLVSLGS,not soluble
4,MGGSHHHHHHGMASSSNVPADMINLRLILVSGKTKEFLFSPNDSASDIAKHVYDNWPMDWEEEQVSSPNILRLIYQGRFLHGNVTLGALKLPFGKTTVMHLVARETLPEPNSQGQRNREKTGESNCCVIL,not soluble
5,MGGWEEREIRGHSLGHWLSAAAAMYETTGDKALLERIDRAVQELATIQDDVGYVGGVKRAHFDEMFSGEFQVGHFNIAGTWVPWYNLHKLFAGLIDVHQLTGHSLALTVVTKLADWAKKGTDQLTDDQFQRMLICEHGGMNEAMADLYTLTGHKDYLQLAIRFCHWAVLEPLANGIDELEGKHANTQIPKVIGAAKLFEITGDDTYRAIAEFFWRQVTNDRSYIIGGNSNSEHFGPANKETLGVETAETCNTYNMLKLTEHLFRWNRSSQLMDYYEKALYNHILASQDPDSGMKTYFVSLQPGHFKVYSSLEESFWCCFGTGLENPARYTRTIYDRDDRHIYVNLFMASEIHLKDLQVQIRQETNFPETDRTKLTFVKADGVSIKLHIRVPEWVAGPVTARINGKETFSESGADYLTIEREWQKGDEIEVHLPMELRIYEAKDDSHKVGIMYGPIVLAGTFGKDHFPETDIVPNHLSLHNHPLIDVPTLVATKKTPDQWIHPVEGRSLTFRTAAIGQPGNVQITLIPFYALHHERYTVYWNLMSEVEYEAFKARKEVESDQLQARTVDAVQPGEQQPEVEHQLKANHSETGYLNIMQKRWRDSRGEDGFFSYVMKVKPNQQMSLFVTYYGGDHGLFVDGKWCDRSFRILIDDEVIKEEQLLGKNPGETLDVYYPIPLALTEGKEEVVVTFASKEGTVAGGVYGVRMLCNLEHHHHHH,not soluble
6,MGHERDWSLVQVALTDITARKKAEAYLEYLGKHDVLTKLHNRAFYSDELNRLERSALRPVSAIVIDLNGLKEANDKLGHDAGDALLRRVGEVLNGVVTAPNHAARIGGDEFAILLPGADKQVAAAMVDTVYELLKINNQFYSSAPLSLSLGVATTEAGETMESLVRRADMNMYEQKNAYYAALRNRSADNNDTTKGLEHHHHHH,not soluble
7,MGHHHHHHGGHMSLAAQELLRDAFTRLIEHVDELTDGLTDQLACYRPTPSANSIAWLLWHSARVQDIQVAHVAGVEEVWTRDGWVDRFGLDLPRHDTGYGHRPEDVAKVRAPADLLSGYYHAVHKLTLEYIAGMTADELSRVVDTSWNPPVTVSARLVSIVDDCAQHLGQAAYLRGIAEGGS,soluble
8,MGHHHHHHGGHMSLHSGSVEHCIKGRSRRAAPRSEHTGRMADIARKASAHWEGDLKSGNGTITTESGVLSQAQYSFKTRFENGKGTNPEELLASAHAGCFTMQLSALLAEHGHEIKALDTDATCEMVKDGPGFKINHMHLRVRAQLTGSDQADFEAHVKDAAEKCPLSRIMQGNVEVTHEAILEGEGGS,soluble
9,MGHHHHHHGGHMSLIGFLTDWGLKSHYVGVAKAVIKRINPSAEIIDITHEVEPFNVRKASHVLYRASLDFPPSTVFLVVVDYGVGTSRKAIVMKTKNDQYFVAPDNGVLTVVAEEYGVAEIREIENRELFYKKNPSFTFHGRDIFAPVAAHLDMGLPLERVGDRLLSYEVLKMRKPVVENEKVIGEVAIVDTFGNVSTNIPFDLFLKLSVDFDDVVRVRVGRKEFKAAVAKAFGDVDTGELLVHPDSAGFLEIAVNLGDASQVLSVKEGDEIEICREGGS,soluble
10,MGHHHHHHGGHMSLKIYVVYDSEGEHTKVLAEAIAEGARENDAAEVFIDHVDQADIRKLKDMDAIIWGCPGHFGTISSGLKTWIDRLGYLWAEGELINKVGAVFCTTATTHGGLEMTMHNLITPMFHQGMIVVGLPGNVPENALYGSYYGAGVTCPVDSDELMSEEGIQLGRALGRRVSQVTGNLTAGQEGGS,soluble
11,MGHHHHHHGGHMSLRTEEEMFQLIMDVAKQEEHIRAVGMVGSRTNVKAPKDSFQDFDIVYIVEPCAEFFETATWIAKFGQPLIMQRPKEMTLFPTEPKTRETFLMLFEDGQRIDLTLCPLAEKDNWHEGDSLAIILLDKDENLPPLPVASDKNYTVTVPDQQQFNDCCNEFWWVSTYVVKGLCRNELFYAVTHLYEYCQQELLRLLSWQAAWQEPEPISVGKQFKYLKNYVTPDTMDQLASLLDFSSKEACWNSLIKTQAFFDVVAQDFAKMAQFTYHLQEAKKVTEYTNSLRLKDLQGKEGGS,not soluble
12,MGHHHHHHHHHHSSGHIEGRHMEANGLGPQGFPELKNDTFLRAAWGEETDYTPVWCMRQAGRYLPEFRETRAAQDFFSTCRSPEACCELTLQPLRRFPLDAAIIFSDILVVPQALGMEVTMVPGKGPSFPEPLREEQDLERLRDPEVVASELGYVFQAITLTRQRLAGRVPLIGFAGAPWTLMTYMVEGGGSSTMAQAKRWLYQRPQASHQLLRILTDALVPYLVGQVVAGAQALQLFESHAGHLGPQLFNKLALPYIRDVAKQVKARLREAGLAPVPMIIFAKDGHFALEELAQAGYEVVGLDWTVAPKKARECVGKTVTLQGNLDPCALYASEEEIGQLVKQMLDDFGPHRYIANLGHGLYPDMDPEHVGAFVDAVHKHSRLLRQN,soluble
13,MGHHHHHHHHMTTSILDTYPQICSPNALPGTPGNLTKEQEEALLQFRSILLEKNYKERLDDSTLLRFLRARKFDINASVEMFVETERWREEYGANTIIEDYENNKEAEDKERIKLAKMYPQYYHHVDKDGRPLYFEELGGINLKKMYKITTEKQMLRNLVKEYELFATYRVPACSRRAGYLIETSCTVLDLKGISLSNAYHVLSYIKDVADISQNYYPERMGKFYIIHSPFGFSTMFKMVKPFLDPVTVSKIFILGSSYKKELLKQIPIENLPVKYGGTSVLHNPNDKFYYSDIGPWRDPRYIGPEGEIPNIFGKFTVTS,soluble
14,MGHHHHHHMAGGGKHTPTPKAIIHQKFGAKASYTVEEVHDSSQSGCPGLAIPQKGPCLYRCHLQLPEFSVVSNVFKKKKDSEQSAAELALDKLGIRPQNDDLTVDEARDEIVGRIKYIFSDEFLSAEHPLGAHLRAALRRDGERCGSVPVSVIATVDAKINSRCKIINPSVESDPFLAISYVMKAAAKLADYIVASPHGLRRKNAYPSEIVEALATHVSDSLHSREVAAVYIPCIDEEVVELDTLYISSNRHYLDSIAERLGLKDGNQVMISRMFGKASCGSECRLYSEIPKKYLDNSSDASGTSNEDSSHIVKSRNARASYICGQDIHGDAILASVGYRWKSDDLDYDDVTVNSFYRICCGMSPNGIYKISRQAVIAAQLPFAFTTKSNWRGPLPREILGLFCHQHRLAEPILSSSTAPVKSLSDIFRSHKKLKVSGVDDANENLSRQKEDTPGLGHGFRCEVKIFTKSQDLVLECSPRKFYEKENDAIQNASLKALLWFSKFFADLDVDGEQSCDTDDDQDTKSSSPNVFAAPPILQKEHSSESKNTNVLSAEKRVQSITNGSVVSICYSLSLAVDPEYSSDGESPREDNESNEEMESEYSANCESSVEPIESNEEIEFEVGTGSMNPHIESEVTQMTVGEYASFKMTPPDAAEALILAVGSDTVRIRSLLSERPCLNYNILLLGVKGPSEERMEAAFFKPPLSKQRVEYALKHIRESSASTLVDFGCGSGSLLDSLLDYPTSLQTIIGVDISPKGLARAAKMLHVKLNKEACNVKSATLYDGSILEFDSRLHDVDIGTCLEVIEHMEEDQACEFGEKVLSLFHPKLLIVSTPNYEFNTILQRSTPETQEENNSEPQLPKFRNHDHKFEWTREQFNQWASKLGKRHNYSVEFSGVGGSGEVEPGFASQIAIFRREASSVENVAESSMQPYKVIWEWKKEDVEKKKTDL,soluble
15,MGHHHHHHSHAFDLTVPTTNQFLLQYLRRQGVCVRTENLAKYVAELSLLEADPFLKYLPSLIAAAAFCLANYTVNKHFWPETLAAFTGYSLSEIVPCLSELHKAYLDIPHRPQQAIREKYKASKYLCVSLMEPPAVLLLQ,not soluble
16,MGHHHHHHSHDGAEPGRVDTFWYKFLKREPGGELSWEGNGPHHDRCCTYNENNLVDGVYCLPIGHWIEATGHTNEMKHTTDFYFNIAGHQAMHYSRILPNIWLGSCPRQVEHVTIKLKHELGITAVMNFQTEWDIVQNSSGCNRYPEPMTPDTMIKLYREEGLAYIWMPTPDMSTEGRVQMLPQAVCLLHALLEKGHIVYVHCNAGVGRSTAAVCGWLQYVMGWNLRKVQYFLMAKRPAVYIDEEALARAQEDFFQKFGKVRSSVCSL,not soluble
17,MGHHHHHHSHGESEDVTQFLQSHKKTLTNEKLFLMDGKRTWFLEMESTPGEDAMNTVKMTTKDLKYDRSLIDKAGFERTDSNFERSHTVGKMLSNSIMCYRDIFYERESQLMQQTSLLSYEIAIATPTFSNYYPDWSAPINIVARPSTSKKIMTC,not soluble
